From patent US7618787B2, “Method of screening compound capable of accelerating or inhibiting apoptosis, apoptosis accelarator and apoptosis inhibitor” (Hisamitsu Pharmaceutical Co., Inc., priority 2004, dated 2009)

Experiments:
Assay type in all cases: binding
p73 [1] = target: T1, p73 (Homo sapiens, UniProt O15350); test: Co-immunoprecipitation with p73 in transfected COS7 cells; conditions: COS7, data not shown
T1 construct: expressed in transfected cells; host or cells: COS7
T1 sequence (O15350 1-499 isoform O15350-2): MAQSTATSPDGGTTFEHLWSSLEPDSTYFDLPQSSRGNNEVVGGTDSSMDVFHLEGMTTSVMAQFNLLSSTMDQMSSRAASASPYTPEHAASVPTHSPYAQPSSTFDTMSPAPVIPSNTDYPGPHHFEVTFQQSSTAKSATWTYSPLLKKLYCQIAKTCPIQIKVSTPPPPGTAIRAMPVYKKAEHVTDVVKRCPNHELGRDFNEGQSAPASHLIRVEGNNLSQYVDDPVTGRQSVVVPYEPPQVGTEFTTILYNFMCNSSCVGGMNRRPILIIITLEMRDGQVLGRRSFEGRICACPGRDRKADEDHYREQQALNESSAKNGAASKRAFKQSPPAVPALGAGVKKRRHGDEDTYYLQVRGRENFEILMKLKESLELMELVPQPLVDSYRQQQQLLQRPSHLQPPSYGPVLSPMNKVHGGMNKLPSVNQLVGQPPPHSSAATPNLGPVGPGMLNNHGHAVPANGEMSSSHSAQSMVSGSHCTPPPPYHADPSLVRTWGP
Protocol: (§1) Whole cell lysates were centrifuged at 15000 rpm for 15 minutes to remove cell debris. The obtained supernatant was pretreated at 4° C. for 30 minutes with protein G-Sepharose (50% slurry, 30 μL; Amersham Pharmacia Biotech). After centrifugation, the supernatant was incubated at 4° C. for 2 hours with an anti-HA polyclonal (Medical and Biological Laboratories) or anti-FLAG monoclonal antibody. The immunocomplexes were precipitated at 4° C. for 30 minutes with protein G-Sepharose beads. After collection by brief centrifugation, the immunoprecipitates were washed three times with lysis buffer, then suspended in 30 μL of 2×Laemmli SDS sample buffer, and treated at 100° C. for 5 minutes. The supernatant was loaded onto 10% SDS-PAGE and analyzed by immunoblot as described above.
(§2) To investigate whether IKK-α interacted with p73 in cultured mammal cells, whole cell lysates were prepared from transfected COS7 cells, then immunoprecipitated with an anti-FLAG or anti-HA antibody, and analyzed by immunoblot using an anti-p73 or anti-FLAG antibody, respectively. […] Likewise, HA-p73β was co-immunoprecipitated with FLAG-IKK-α (data not shown). […] To identify determinants of p73 participating in the interaction with IKK-α, several deletion mutants of p73 fused to GST were prepared and examined for their abilities to bind to FLAG-IKK-α by in-vitro pull-down assay. These mutants were designed on the basis of the functional domains of p73 including transactivation, DNA-binding, oligomerization, and SAM domains (FIG. 12).

p73 [2] = target: T2, p73 (Homo sapiens, UniProt O15350); test: as above; conditions: COS7, co-immunoprecipitation (FIG. 10, FIG. 28)
T2 construct: expressed in transfected cells; host or cells: COS7
T2 sequence (O15350 1-636): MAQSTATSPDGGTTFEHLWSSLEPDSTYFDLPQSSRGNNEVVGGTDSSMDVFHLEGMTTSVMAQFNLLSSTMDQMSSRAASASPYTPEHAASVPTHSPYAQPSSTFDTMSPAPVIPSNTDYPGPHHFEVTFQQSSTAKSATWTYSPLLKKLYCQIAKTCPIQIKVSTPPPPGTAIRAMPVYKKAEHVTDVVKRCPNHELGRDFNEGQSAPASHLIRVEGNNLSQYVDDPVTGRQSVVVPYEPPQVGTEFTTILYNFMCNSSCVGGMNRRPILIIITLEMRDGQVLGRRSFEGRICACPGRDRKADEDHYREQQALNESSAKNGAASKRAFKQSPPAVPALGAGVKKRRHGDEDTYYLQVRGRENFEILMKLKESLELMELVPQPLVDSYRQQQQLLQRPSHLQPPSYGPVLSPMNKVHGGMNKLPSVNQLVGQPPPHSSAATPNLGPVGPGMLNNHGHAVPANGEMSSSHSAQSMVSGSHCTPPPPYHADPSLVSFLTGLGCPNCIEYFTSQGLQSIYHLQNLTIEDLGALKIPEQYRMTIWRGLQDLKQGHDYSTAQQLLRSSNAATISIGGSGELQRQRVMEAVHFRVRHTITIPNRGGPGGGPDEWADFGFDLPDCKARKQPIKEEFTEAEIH
Protocol: as §1, §2

GST-p73 fusion proteins = target: T3, GST-p73 fusion proteins (Homo sapiens, UniProt O15350); test: In vitro GST pull-down assay; conditions: in vitro pull-down (FIG. 13)
T3 construct: made in house
T3 sequence (O15350 114-328): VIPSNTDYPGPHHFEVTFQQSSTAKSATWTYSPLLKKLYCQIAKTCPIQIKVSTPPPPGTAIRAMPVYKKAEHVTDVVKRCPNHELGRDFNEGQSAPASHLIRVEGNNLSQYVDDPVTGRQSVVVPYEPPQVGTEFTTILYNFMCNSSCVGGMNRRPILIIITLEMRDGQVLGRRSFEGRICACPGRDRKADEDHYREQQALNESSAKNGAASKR
Protocol: Whole cell lysates prepared from COS7 cells expressing FLAG-IKK-α were mixed with glutathione S-transferase (GST) or GST fusion protein and incubated with slow shaking at 4° C. for 2 hours in the presence of glutathione-Sepharose beads (Amersham Pharmacia Biotech). Then, the Sepharose beads were precipitated by brief centrifugation and vigorously washed with NETN buffer (pH 7.5; 50 mM Tris-Cl, 150 mM sodium chloride, 0.1% NP-40, and 1 mM EDTA) containing 1 mM PMSF. The proteins bound with the beads were eluted therefrom by the addition of 30 μL of 2×Laemmli SDS sample buffer, then boiled for 5 minutes, and separated with 10% SDS-PAGE. The proteins were transferred to PVDF membranes and immunoblotted with […] as described above.
To investigate whether IKK-α interacted with p73 in cultured mammal cells, whole cell lysates were prepared from transfected COS7 cells, then immunoprecipitated with an anti-FLAG or anti-HA antibody, and analyzed by immunoblot using an anti-p73 or anti-FLAG antibody, respectively. […] Likewise, HA-p73β was co-immunoprecipitated with FLAG-IKK-α (data not shown). […] To identify determinants of p73 participating in the interaction with IKK-α, several deletion mutants of p73 fused to GST were prepared and examined for their abilities to bind to FLAG-IKK-α by in-vitro pull-down assay. […]

B1: IKK-α: IKK-α protein, amino acid sequence SEQ ID NO: 24, expressed from plasmid; apoptosis enhancer (protein, listed as Homo sapiens)
chain: MERPPGLRPGAGGPWEMRERLGTGGFGNVCLYQHRELDLKIAIKSCRLELSTKNRERWCHEIQIMKKLNHANVVKACDVPEELNILIHDVPLLAMEYCSGGDLRKLLNKPENCCGLKESQILSLLSDIGSGIRYLHENKIIHRDLKPENIVLQDVGGKIIHKIIDLGYAKDVDQGSLCTSFVGTLQYLAPELFENKPYTATVDYWSFGTMVFECIAGYRPFLHHLQPFTWHEKIKKKDPKCIFACEEMSGEVRFSSHLPQPNSLCSLIVEPMENWLQLMLNWDPQQRGGPVDLTLKQPRCFVLMDHILNLKIVHILNMTSAKIISFLLPPDESLHSLQSRIERETGINTGSQELLSETGISLDPRKPASQCVLDGVRGCDSYMVYLFDKSKTVYEGPFASRSLSDCVNYIVQDSKIQLPIIQLRKVWAEAVHYVSGLKEDYSRLFQGQRAAMLSLLRYNANLTKMKNTLISASQQLKAKLEFFHKSIQLDLERYSEQMTYGISSEKMLKAWKEMEEKAIHYAEVGVIGYLEDQIMSLHAEIMELQKSPYGRRQGDLMESLEQRAIDLYKQLKHRPSDHSYSDSTEMVKIIVHTVQSQDRVLKELFGHLSKLLGCKQKIIDLLPKVEVALSNIKEADNTVMFMQGKRQKEIWHLLKIACTQSSARSLVGSSLEGAVTPQTSAWLPPTSAEHDHSLSCVVTPQDGETSAQMIEENLNCLGHLSTIIHEANEEQGNSMMNLDWSWLTE
**Q.** With B1 as the molecule, how does the “co-immunoprecipitation with HA-p73β” value (p73 [1]) read?
**A.** co-immunoprecipitated

**Q.** And the “complex formation with HA-p73α” value (p73 [2])?
**A.** formed stable complexes

**Q.** What about the “binding to GST-p73 deletion mutants” value (GST-p73 fusion proteins) of the same molecule?
**A.** bonded to GST-p73 (114-328) but not to other GST-fused proteins
